Patent publication US10876130B2, “HPPD variants and methods of use” (Bayer CropScience LP, priority 2014, dated 2020)
Changes are numbered by the printed parent chain. Names may count otherwise. “And” between values parts separate entries of the source, which are not always exact repeats. Equal entries are not always repeated.

B1: Axmi309H-PWG: Axmi309H protein containing E335P, G336W, and A340G; SEQ ID NO:21 (protein)
chain: MADLYENPMGLMGFEFIEFASPTPGTLEPIFEIMGFTKVATHRSKNVHLYRQGAINLILNNEPHSVASYFAAEHGPSVCGMAFRVKDSQKAYNRALELGAQPIHIETGPMELNLPAIKGIGGAPLYLIDRFGEGSSIYDIDFVFLEGVDRNPVGAGLKIIDHLTHNVYRGRMAYWANFYEKLFNFREIRYFDIKGEYTGLTSKAMTAPDGMIRIPLNEESSKGAGQIEEFLMQFNGEGIQHVAFLTDDLVKTWDQLKKIGMRFMTAPPDTYYEMLEGRLPNHGEPVDQLQSRGILLDGASDKEDKRLLLQIFSETLMGPVFFEFIQRKGDDGFGPWNFKGLFESIERDQVRRGVLATE
modifications: variant HPPD
B2: PfHPPDEvo40: reference Pseudomonas fluorescens HPPD variant, SEQ ID NO:3 in Table 2 (protein)
chain: MADLYENPMGLMGFEFIEFASPTPGTLEPIFEIMGFTKVATHRSKNVHLYRQGEINLILNNEPNSIASYFAAEHGPSVCGMAFRVKDSQKAYNRALELGAQPIHIDTGPMELNLPAIKGIGGAPLYLIDRFGEGSSIYDIDFVYLEGVERNPVGAGLKVIDHLTHNVYRGRMVYWANFYEKLFNFREARYFDIKGEYTGLTSKAMSAPDGMIRIPLNEESSKGAGQIEEFLMQFNGEGIQHVAFLTDDLVKTWDALKKIGMRFMTAPPDTYYEMLEGRLPDHGEPVDQLQARGILLDGSSVEGDKRLLLQIFSETLMGPVFFEFIQRKGDDGFGPSNFKELFESIERDQVRRGVLTAD
modifications: variant HPPD
B3: PfHPPDEvo41: reference Pseudomonas fluorescens HPPD variant, SEQ ID NO:4 in Table 2 (protein)
chain: B2 chain with S336W, K339A, E340Q
modifications: variant HPPD

Experiments:
[1] = system: HPPD enzymes; experiment: pyomelanin (brown color) colorimetric assay of HPPD enzymes overexpressed in E. coli, with tembotrione; assay type: cell-based; details: among Axmi309H mutants
Experimental: A specific, although non-limiting, type of assay that can be used to evaluate the HPPD sequences of the invention is a colorimetric assay. In this assay, a YT-broth-type culture medium with 1% agarose, 5 mM L-Tyrosine and 42 mM Succinate, which contains the selection agent for the vector pSE420 (Invitrogen, Karlsruhe, Germany) or a modified version of pSE420 (pSE420(RI)NX) is poured into deep well plates. E. coli culture in the exponentional growth phase which contains the vector pSE420-HPPDx (HPPDx means any gene coding for a putative HPPD enzyme/protein) is applied to each well.
Enzymes with improved tolerance to TBT were identified by this approach. The three-dimensional structure of Pseudomanas HPPD was studied to identify residues in the active site that were likely to be involved in substrate binding.
Briefly, overexpression of HPPD enzymes (in E. coli) on rich growth medium leads to the production of the compound pyomelanin. Pyomelanin is deep brown in color, therefore, inspection of HPPD enzymes grown on LB agar in a multi-well plate allows visual comparison of the enzymatic activity of HPPD enzymes. This experimental approach also allows varying concentrations of HPPD inhibitors (such as tembotrione) to be added to individual sample wells, which allows visual assessment of the tolerance of HPPD inhibitors by the randomized HPPD enzymes.

[2] = system: Soybean plants; experiment: tolerance of soybean plants to mesotrione, spray test; assay type: in vivo
Experimental: Soybean plants expressing an HPPD inhibitor tolerant enzyme of the present invention, along with a gene conferring tolerance to glyphosate and a gene conferring tolerance to glufosinate, were tested for tolerance to mesotrione. A DeVries Tracker Sprayer was calibrated prior to each spraying. The chemical formulation used for mesotrione (MST) testing was Callisto® 4 SC formulation. Spray tests were conducted using 3× the field rate (equivalent to 9 fluid ounce per acre of the same herbicide formulation that containing 40% the active ingredient (AI), mesotrione), which equals 316 grams AI per hectare. Tolerance was evaluated one week after spraying. A tolerance rating of “0” was assigned to plants that their shoot apexes, newly emerged trifoliates and some axillary buds were completely bleached. A rating of “1” was assigned to plants having slight tolerance, i.e., the newest plant shoot tissues had some green and are not bleached completely. A rating of “2” was assigned to plants showing moderate tolerance, i.e., more than 50% of the leaf area of the top three trifoliates showing no chlorosis or bleaching damage. A rating of “3” was assigned to plants showing nearly perfect tolerance, i.e., less than 10% of the leaf area showing chlorosis or very slight bleaching.

[3] = system: HPPD enzymes; details: for 125 μM HPP/500 μM HPP × 100 / 500 μM HPP, 5 μM TBT/500 μM HPP × 100: Table 3; for 125 μM HPP/500 μM HPP × 100: rate at limiting relative to high substrate; for 500 μM HPP, 5 μM TBT/500 μM HPP × 100 / 500 μM HPP + 5 μM TBT (as % of 500 μM HPP, dataset 1): rate with 5 μM tembotrione relative to rate without; for 500 μM HPP, dataset 1: enzymatic rate at high substrate (500 μM HPP), no inhibitor, measure of Vmax, E. coli extract; for 125 μM HPP (as % of 500 μM HPP, dataset 1): rate at limiting substrate relative to high substrate, measure of substrate affinity (Km); for 500 μM HPP + 5 μM TBT (as % of 500 μM HPP, dataset 1): resistance to tembotrione
Experimental: The in vitro kinetic assay couples the production of Homogentisic acid with the enzyme Homogentisate 1,2-dioxygenase (HGO). HGO converts homogentisic acid to maleoacetoacetate, which is easily quantified by UV absorption at 321 nm. The assay is carried out in real-time, and product can be quantified continuously in a 96-well spectrophotometer.
The kinetic assay was performed in two stages.
Experimentally, the first stage enzymatic assays were performed as follows. […] The cultures were incubated at 37 degrees C. When the OD reached 0.6-0.7, the temperature was decreased to 30 degrees C. and the cultures were incubated overnight. Cultures were sampled the next afternoon for the pyomelanin assay and the remaining culture was pelleted at 6500 rpm in an SA600 rotor, the supernatant was removed, and the pellets were frozen overnight at −20 degrees Celsius or until assay.
Just before assay, the pellets were resuspended in 1 ml of buffer (20 mM Hepes pH 7.0, 50 mM NaCl). Two ul of LYSONASE™ (Novagen) was added to each resuspended pellet, and then mixed. Two ml of buffer and 4 ul of LYSONASE™ were then added to the HGO pellet. The suspensions were incubated for 45 minutes at room temperature, and then frozen at −20 degrees for at least 1 hour. Then, the solutions were thawed at room temperature with occasional brief immersion in a 37 degree C. water bath and a little agitation. The cultures were spun down for 15 min at 14000 rpm in a Sorvall SA 600 rotor. The supernatants were carefully pipetted off the pellets (with care not to disturb the pellets), and transferred into 1 column of a 96 well plate, and 0.5 ml of buffer was added to each of the samples and pipetted up and down to mix. The HGO supernatant was collected and the reactions were performed in the following order. The HGO was added to the 500 μM HPP solution and the 500 μM solution+5 μM TBT. Immediately 100 ul of the 500 μM HPP solution was pipetted into even-numbered rows (5 reps) and 100 ul of the 500 μM HPP+5 μM TBT solution was pipetted into odd-numbered rows (5 reps). The reactions were divided between two 96-well plates to allow a sufficient number of samples to be analyzed (4 assays total in one 96-well plate, and 6 in another). Then, 100 ul of the enzyme solutions or buffer was pipetted first into a row of wells containing 500 μM HPP+5 μM TBT followed by gentle mixing by stirring with the pipette tips, and next into a row of wells containing 500 μM HPP followed by gentle mixing by stirring with the pipette tips. Product formation was measured by absorbance at 321 nm at 5 sec intervals. The reduced values (equivalent to the absorbance change over 50 sec, and calculated as OD/min) were analyzed. Five sets of data were collected. This was then repeated after addition of the HGO to the 125 μM HPP, using the same steps as above.
The enzymatic assay for each protein at 500 μM HPP is shown as milliOD units/minute, while the relative activity at 500 μM HPP+5 μM TBT, and also 125 μM HPP, are shown as a percentage of the activity at 500 μM HPP.

Molecule	tolerance to tembotrione in the brown color assay [1]	number of plants with tolerance rating 1 ([2]; same spray test, 1 = slight tolerance, newest shoot tissues had some green)	number of plants with tolerance rating 2 ([2]; same spray test, 2 = moderate tolerance, more than 50% of leaf area of top three trifoliates without chlorosis or bleaching)	number of plants with tolerance rating 3 ([2]; same spray test, 3 = nearly perfect tolerance, less than 10% of leaf area showing chlorosis or very slight bleaching)	number of plants with tolerance rating 0 ([2]; soybean expressing the clone, mesotrione (Callisto 4 SC) 316 grams AI per hectare (3× field rate), one week after spraying, 0 = completely bleached)	125 μM HPP/500 μM HPP × 100 [3]	500 μM HPP, 5 μM TBT/500 μM HPP × 100 [3]	500 μM HPP, dataset 1 [3]	125 μM HPP (as % of 500 μM HPP, dataset 1) [3]	500 μM HPP + 5 μM TBT (as % of 500 μM HPP, dataset 1) [3]
B1	most tolerant to tembotrione	18	23	12	5					
B2						57	44	16 milliOD units/minute and 19 milliOD units/minute	61% and 65%	42% and 65%
B3						50	39	64 milliOD units/minute and 73 milliOD units/minute	34% and 54%	28% and 52%
